Reference: paper PMC5435084 (Molecular Biology and Evolution, 2017)
Like-named read-outs stand apart in the source and are kept apart here.

B1: SRGAP2A F-BARx-RhoGAP-SH3 (residues 1-799) (domain or fragment)
chain: not shown

How the values were obtained:
SEC [1] = biological target: the molecule itself; experiment: SEC
[2] = biological target: B1; experiment: SEC-MALS
SEC [3] = biological target: the molecule itself; experiment: SEC; remark: listed apart in the source
[4] = biological target: SRGAP2A RhoGAP-SH3 domains (isolated) (human, UniProt O75044 485-1071); experiment: MST

binding result [2] | Kd [4] | Binder | stoichiometry N (SEC [1]) | stoichiometry N (SEC [3])
 |  | B1 | 2 | 
binds |  | SRGAP2C F-BAR portion (F-BARC, SRGAP2C residues 1-355) (domain or fragment, human, UniProt P0DJJ0 1-355, looked up) MTSPAKFKKDKEIIAEYDTQVKEIRAQLTEQMKCLDQQCELRVQLLQDLQDFFRKKAEIEMDYSRNLEKLAEHFLAKTRSTKDQQFKKDQNVLSPVNCWNLLLNQVKWESRDHTTLSDIYLNNIIPRFVQVSEDSGRLFKKSKEVGQQLQDDLMKVLNELYSVMKTYHMYNADSISAQSKLKEAEKQEEKQIGKSVKQEDRQTPCSPDSTANVRIEEKHVRRSSVKKIEKMKEKHQAKYTENKLKAIKAQNEYLLALEATNASVFKYYIHDLSDLIDQCCDLGYHASLNRALRTFLSAELNLEQSKHEGLDAIENAVENLDATSDKQRLMEMYNNVFCPPMKFEFQPHMGDMASQ |  | 2
 | 3 µM | SRGAP2A F-BAR domain (F-BARA, residues 1-355) (domain or fragment, human, UniProt O75044 1-355, looked up, fluorescently labeled (in the MST only)) MTSPAKFKKDKEIIAEYDTQVKEIRAQLTEQMKCLDQQCELRVQLLQDLQDFFRKKAEIEMDYSRNLEKLAERFLAKTRSTKDQQFKKDQNVLSPVNCWNLLLNQVKRESRDHTTLSDIYLNNIIPRFVQVSEDSGRLFKKSKEVGQQLQDDLMKVLNELYSVMKTYHMYNADSISAQSKLKEAEKQEEKQIGKSVKQEDRQTPRSPDSTANVRIEEKHVRRSSVKKIEKMKEKRQAKYTENKLKAIKARNEYLLALEATNASVFKYYIHDLSDLIDQCCDLGYHASLNRALRTFLSAELNLEQSKHEGLDAIENAVENLDATSDKQRLMEMYNNVFCPPMKFEFQPHMGDMASQ |  | 2
 | 3.5 µM | SRGAP2A F-BARx (extended F-BAR, residues 1-484) (domain or fragment, human, UniProt O75044 1-484, looked up, fluorescently labeled (in the MST only)) MTSPAKFKKDKEIIAEYDTQVKEIRAQLTEQMKCLDQQCELRVQLLQDLQDFFRKKAEIEMDYSRNLEKLAERFLAKTRSTKDQQFKKDQNVLSPVNCWNLLLNQVKRESRDHTTLSDIYLNNIIPRFVQVSEDSGRLFKKSKEVGQQLQDDLMKVLNELYSVMKTYHMYNADSISAQSKLKEAEKQEEKQIGKSVKQEDRQTPRSPDSTANVRIEEKHVRRSSVKKIEKMKEKRQAKYTENKLKAIKARNEYLLALEATNASVFKYYIHDLSDLIDQCCDLGYHASLNRALRTFLSAELNLEQSKHEGLDAIENAVENLDATSDKQRLMEMYNNVFCPPMKFEFQPHMGDMASQLCAQQPVQSELVQRCQQLQSRLSTLKIENEEVKKTMEATLQTIQDIVTVEDFDVSDCFQYSNSMESVKSTVSETFMSKPSIAKRRANQQETEQFYFTKMKEYLEGRNLITKLQAKHDLLQKTLGESQRT |  | 
